The results in this text go back to the DeepSol protein solubility set.

The nature of this data set: soluble on expression in E. coli; label from the status in PepcDB or PDB records.
As for “MDREAFVQTLTACRLCPRLVAWREEVVGRKRAFRGEPYWARPVPGFGDPEARILLFGLAPGAHGSNRTGRPFTGDASGAFLYPLLHEAGLSSKPESLPGDDLRLYGVYLTAAVRCAPPKNKPTPEELRACARWTEVELGLLPEVRVYVALGRIALEALLAHFGLRKSAHPFRHGAHYPLPGGRHLLASYHVSRQNTQTGRLTREMFLEVLMEAKRLAGL”, the “soluble on expression in E. coli” value was “soluble”.

As for “RNLSGQSRTVGVEYVSANPTGPLHVGHGRAAAIGDCLARLLEANGWNVKREFYYNDAGVQIENLVRSVQARARGLKPGDALWPTDAYNGEYIADIAKAYLAGDSINMVDTIITSTKNVDDTAAIHHFAVNYLRNEQNHDLAAFNVDFDIYFLESSLYKDGKVEETVQKLINSGHTYEEGGALWLKSTHFGDDKDRVMRKSDGSYTYFVPDIAYHLSKWQRGYERAITELGADHHGSLARVHAGLQALEIGIPPGWPEYVLHQMVTVMRGGEEVKLSKRSGGYVTLRDLIEETSTDATRWFLIARKPDSQLTFDIDLARQKSNDNPVFYVQYAYARVCSLMHQAHE”, the “soluble on expression in E. coli” value was “not soluble”.

As to “MGSSHHHHHHSSGLVPRGSHMALGSGVVPFENLQIEEGIITDAEVARFDNIRQGLDFGYGPDPLAFVRWHYDKRKNRIYAIDELVDHKVSLKRTADFVRKNKYESARIIADSSEPRSIDALKLEHGINRIEGAKKGPDSVEHGERWLDELDAIVIDPLRTPNIAREFENIDYQTDKNGDPIPRLEDKDNHTIDATRYAFERDMKKGGVSLWG”, the “soluble on expression in E. coli” value is listed as “soluble”.

With “DYKDIVLTQSHKFMSTSVGDRVSITCKASQDVGTAVAWYQQKPGQSPKLLIYWASTRHTGVPDRFTGSGSGTDFTLTISNVQSEDLADYFCQQYSSYPLTFGAGTKLELKRGGGGSGGGGSGGGGSGGGGSQVQLQESGGELVRPGASVKLSCKASGYTFTSYWINWVKQRPGQGLEWIGNIYPSDSYTNYNQKFKDKATLTVDKSSSTAYMQLSSLTSEDSAVYFCARWGYWGQGTLVTVSAASGAHHHHH”, the “soluble on expression in E. coli” value is recorded as “soluble”.

Turning to “MIDGIESGLGIAQAFPSVTGEAKPGNLAADGGKFFGELVSKVSELQAQSDTAIKGLVSGESKGLHEVMIAMEKSSISFQFLSQVRNKAVEAYQEVMRMQV”, the “soluble on expression in E. coli” value was “not soluble”.

For the sequence “MHHHHHHSSGVDLGTENLYFQSMHGWGYGQDDGPSHWHKLYPIAQGDRQSPINIISSQAVYSPSLQPLELSYEACMSLSITNNGHSVQVDFNDSDDRTVVTGGPLEGPYRLKQFHFHWGKKHDVGSEHTVDGKSFPSELHLVHWNAKKYSTFGEAASAPDGLAVVGVFLETGDEHPSMNRLTDALYMVRFKGTKAQFSCFNPKCLLPASRHYWTYPGSLTTPPLSESVTWIVLREPICISERQMGKFRSLLFTSEDDERIHMVNNFRPPQPLKGRVVKASF”, the “soluble on expression in E. coli” value is recorded as “soluble”.

Regarding “MEYKPMPYPIIDSHCHLDFPKFNPDREEAIQRARKAGVVGMVNSGISLKGNRISLELAEKNEDIHAALGLSPDIGREGSDKDINAILAQIEANAGKAVAIGEAGLDFQDCKTDEERRRQTASFKKVIELAKNLEKPLVVHARMAEAEVLELARDVDTVIYHCYSGSVETMKEIVDAGYYISLATLVCFSEHHQTLAAEVPPENLLLETDSPFLSPRRGRNEPAFIVDSIPVVAEYKEMEPAEIAKFATENARRVFKILEHHHHHH”, the “soluble on expression in E. coli” value was “not soluble”.

Consider “SLSYTISRPINQLMLAMQKAESGDLTSRYEGEEQDEVGRLGRSFNTMIEQIGKLISLTERQERKKREAELHSLQANIKPHFLYNTLDTIQWMARKKNASDVADLVGALSKLFRIGLSKGGTIIPLVDEIEHIKNYLQIQSVRYKNKLNYSLVMPSNMERLSILKIVLQPIVENAIYHGIKERRGPGLITIEAERENDMLIIRIRDNGKGIKPETLQQLRTNVNLFLEKGDKEGGQRLTKGYGLINVHARLRLTFGEPYGVKIDSVFNEGTVVTIFHPILEGGVETKRA”, for which the “soluble on expression in E. coli” value is reported as “soluble”.

As for “IQQFNYGVRLVMSDNMQKILEYPNKTLSLGEKYYTGKTIGEIWGYKTIGIAQTQEEMDKHLANGGKPNWGSAWGAGDIMYANIDGKDGVNSGANTVNDHGDLKIIGNSTPRYNFGLTLDGSWKGLDFSLFIQGVMKRDYMLDGPYFWGANGGMWQSCVFKEHLDYWRPEGDPLGANTNAYYPKPYFSSNKNQKTQSGYLQNAAYCRLKNAQIGYTLPKAWTKKAAMESVRVYVSGDNLLTISGISDIFDPETLGGDWGPGKLYPLQRTISIGLNVNF”, the “soluble on expression in E. coli” value was “not soluble”.

For the sequence “ERVPKTVDVETIRSRIAQIDGVGGVHDVHVWSIDGQQDIATVHVVVDENVNVKDCTTLDRIQKVFHDAGIDHVTVQLEHDTHMSHELPCQH”, the “soluble on expression in E. coli” value is reported as “soluble”.

With “MGSDKIHHHHHHMEMESPVRILFVIDQFSSPYAGTEGQLLQLISNLPADRFDPELLVLRSSDYVNEGNIPCKVHVLGSSKLFSMKTWLALFQFARRQKQAGTALCHVFFNDSSVLCPPVFGLVGIPTLISRRDMGYWYTRKYLWVLRRTAGFVRGVVANSEAVKRITVQKEGFSDADVSVIYNGYPEGDEELHPLIGEERQRYVETLGLPKSGRFVVLVANLRDIKRIGDAISAMARLTQTLPDTHLVLIGAGDQKPYRMLAEAVGNAGQVHFLGARSDVNNILRVMDVGLLCSESEGYSNAIVEYMQAKLPVVASDVGGNSEAVEHGVTGFLFPMGDVDQMAEQLATVLKGESRAVASMGEAGYKRAGHRHALHTMIEAHCGLYDRLLSGSDYSRSGLGVR”, the “soluble on expression in E. coli” value is “not soluble”.

With “MSLEKKVVKFFTVDNMEKEEAYLNEMAQNGWFFQKYKSFRYHFKQGEPAKYSYAIDFKENEGDEDAYKTLFEDAGWETVFSYPVLNGNWMYFRKAVAPGETEEAIFTDETSLIQLYKNIRKREGHHHHHH”, the “soluble on expression in E. coli” value is on record as “soluble”.

For the sequence “MPYVERSNIVGLFGGSFNPPHEGHLLVAKTAIRRLRLNQLWWMVTPGNPLKDCTHLPPLEKRMRLSLELIDDPKIRVTGFEQAIGSKVSVETISHILAHYRRVHFVWIMGADSLATIHHWYRWHDIISMLPIAIIDRPLVHMSALSSSMAHIYRSFRLDERESIRLPFMKPPAWIYLHGALSFQSSTNLRLKENAFF”, the “soluble on expression in E. coli” value is given as “not soluble”.

As for “MNQSCPNKTSFKIAFIQARWHADIVDEARKSFVAELAAKTGGSVEVEIFDVPGAYEIPLHAKTLARTGRYAAIVGAAFVIDGGIYDHDFVATAVINGMMQVQLETEVPVLSVVLTPHHFHESKEHHDFFHAHFKVKGVEAAHAALQIVSERSRIAALV”, the “soluble on expression in E. coli” value is “soluble”.

In the case of “MSLADFLRHRREALRPEDVGLSPGARRRARGLRREEVAALALMSTDYYTRLEQRRGPQPSERMLDSLARALRLTRAERDYLYRVAGHNAPASLSDPSPVAPALLRVLDRLDDTPALILTELGETLVQNRMAVALFGDASRHTGLARSAVYRWFTDPSERSVYPESDWGRQSRAQVANLRAAYGMRGARSHAGALVRILQQSNEEFAELWERHEVAQRFEDHKTLIHPEVGAIEVDCQALFTEDQSQTLLVLTAPPRTESHEKLQLLAVLGLHRFTEAEDQVREGHHHHHH”, the “soluble on expression in E. coli” value is reported as “not soluble”.

With “MTTVTKHKVLLIAGPTAVGKTALSLALAKQLNGEIISGDSMQVYRHLDIGTAKIMPEEQAGIPHHLIDIKNIDQRFTVAEFVSRTTALIIDISARGKLPIIVGGTGFYLQSLLAGYQFGPADNEPDMAYRQAWFDRAAVEGSDVAWMALKQRDPQAATAIAPANLVRVVRALEYVHTTGQLFSEQADTHGDTLDAYTLCLTAERALLYTRINQRVDQMVAAGLEQEARWLFDQGGAMLPAGKGIGYHEWFPYFNGEQTRDESIAKIKQDSRRYAKRQLTWFRNKMSVDWINLLEHPELRASIDQRLASWLSLEHHHHHH”, the “soluble on expression in E. coli” value is on record as “soluble”.

For the sequence “MGSDKIHHHHHHMRTYRLVIACPDRVGIVAKVSNFLALYNGWINEASHHSDEQSGWFFMRHEIRAESLPFGIEAFREAFAPIAEEFSMTWRITDSAQKKRVVLMASRESHCLADLLHRWHTDELDCEIPCVISNHNDLRSMVEWHGIPFFHVPVDPKDKAPAFAEVSRLVQEHAADVVVLARYMQILPPQLCRDYAEKVINIHHSFLPSFVGAKPYHQAALRGVKLIGATCHYVTEELDAGPIIEQDVVRVSHADSIEDMVRFGRDVEKMVLARGLRYHLEDRVLVHGNKTVVFD”, the “soluble on expression in E. coli” value is “not soluble”.

For “TGQIGTKGTVLFCNPTETEQYLKCNVEMFVQGASSANDFKKGYTFDLYNSNGEELGVKFGDMISSSSFHLKAFYRDPTHTRDQAGYRFWKSLAETLDYPYCKINNSVYAQSTTRSDKAEFTFDAKYYPHGFPVEIYLNDTFHGLYTLRLKKTRENYTLNNADLNHIFLDNAEYRARLNTSFNYAQWEIKSPKMKGYSDQGPIPATFPTVQAAIDNLFNFTKGLSANYANHATVLNLPHWVLFYILAELTGHWDIDGNNYNIFTWDGVHWSILPYDMDLTLNWYRNSGATQTGFLINVDIWQTFRTVYSNEIKAMWTKFRNEKSLTTEKVVNTYRNVAKDIPREVYVADKAKWGLATDFTGNDYPNIEQIYRYITARIAYL”, the “soluble on expression in E. coli” value is listed as “not soluble”.

For the sequence “MCNNEAKMSELLSVQSDAPAKKINLMDLTRQQMREFFKELGEKPFRADQLVKWIYHFGEDNFDNMTNINKKLREKLKAVAEIKAPEVAVEQRSADGTIKWAMQVGEQQVETVYIPEADRATLCVSSQVGCALACTFCSTAQQGFNRNLTVSEIIGQVWRASKIIGNFGVTGVRPITNVVMMGMGEPLLNVANVVPAMEIMLDDFAYGLSKRRVTLSTSGVVPALDNLSKMIDVALAISLHAPNDELRDEIVPINKKYNIKTLIDSVNRYLNVSNANHGKVTIEYVMLDHVNDGVEHAHQLAEVLKNTPCKINLIPWNPFPEAPYAKSSNTRIDRFQKTLMEYDFTVIIRKTRGDDIDAACGQLAGDVIDRTKRTAMKRQFGQNIGVTEVN”, the “soluble on expression in E. coli” value is given as “not soluble”.

Take “MKQWREKSRQLAERGDLTPADWSNLELYCVNYSIYRKAVADLAARGFSIVNSQGGESRNPALSAKSDAERVMIKMASLLGFDPISRRKNPPETEEEDELDRLE”: the “soluble on expression in E. coli” value is given as “not soluble”.

Take “MGSDKIHHHHHHVSYPANRTPDHLLESDRAAGFEISADFERFDQRNDIFTRAFWDERVKSKDTDAFFASYRMEAAPRRGDGFTQKDFALRNAAWLISDIVSERSAEEGLREGFQGAIRDDTPVAPDKADLGAPEAEAAEMKAVAKLFGADLVGITHFDARWHYSARPDVRTMEAVPNDLPEGLGQVIVMGHAMDADLVETYPSALAGAATGREYSHEAAIVMQVAAYVRNLGYRAVASMNDTALVIPYAIKAGLGEYGRNQMVLTPEFGPRVRFSKIFTDMPLAVDAPRAFGLKAYCEGCDVCAVACPVKALPFGAPEFGGKAPSALRGVKKWTSDAEACFGYWAKLRSDCAICMRVCPFTAPRAGWVDRLWYKLAVGVFGDTGRGIARKWAARRAKARVKPKDWWAALRS”: the “soluble on expression in E. coli” value was “not soluble”.

For “AALPDSVDWREKGCVTEVKYQGSCGASWAFSAVGALEAQLKLKTGKLVSLSAQNLVDCSTEKYGNKGCNGGFMTTAFQYIIDNKGIDSDASYPYKAMDQKCQYDSKYRAATCSKYTELPYGREDVLKEAVANKGPVSVGVDARHPSFFLYRSGVYYEPSCTQNVNHGVLVVGYGDLNGKEYWLVKNSWGHNFGEEGYIRMARNKGNHCGIASFPSYPEILQG”, the “soluble on expression in E. coli” value is “soluble”.

Turning to “MFKILLALCIVGCSFAAPIHGDVDDELLGLAWEAAATSVNNGNRGKFWVPIEIQSSDKNGAVTNLVVVFQESWCSVEEGNDLEDVCESMCPVYYGGAKATYRVTATESNGGSDFESVRIE”, the “soluble on expression in E. coli” value is listed as “not soluble”.

For the sequence “MMKLNLFINANETESYIDIHAPKMNDHVQSIINAVNDLDKSHTLVGYIDKEIHIINVSDVITFQVINKNVTAITSNQKFKLKLRLYELEKQLPQHFIRISKSEIVNKYYIEKLLLEPNGLIRMYLKDAHYTYSSRRYLKSIKERLSI”, the “soluble on expression in E. coli” value is reported as “not soluble”.
